Results on 2 molecules are retold here after US7592168B2, “Cephalosporin C acylase mutant and method for preparing 7-ACA using same” (Sandoz AG, priority 2003, dated 2009).

For series [1] the following is noted: Matsuda et al. 1987; cited from earlier work.
A short description of series [2]: Productivity of CPC acylase, pBC KS(+) plasmids in E. coli MC1061. Particulars: E. coli MC1061, LB, 25° C., 48 hr, crude enzyme. Here is the method: To compare the productivity of CPC acylase by pBCPC plasmid derived E. coli transformant with that by pBSEM plasmid derived E. coli transformant, a CPC acylase crude enzyme solution obtained from each E. coli transformant was prepared as follows. Each E. coli transformant was inoculated into 3 ml of a LB medium (1% Bacto-Tryptone, 0.5% Yeast Extract, 0.5% NaCl) containing 25 μg/ml of chloramphenicol and cultured at 30° C., 200 rpm for 16 hr with vigorous shaking. 50 μl of the culture solution was transformed to 50 ml of a new LB medium containing […] of chloramphenicol and further cultured at 25° C., 200 rpm for 48 hr with vigorous shaking. The culture solution was subjected to centrifugation at 4° C., 8,000 rpm for 10 min to separate a precipitate and the precipitate washed twice with 0.1 M Tris-HCl buffer solution (pH 8.0). This precipitate was suspended in 5 ml of the same buffer solution and subjected to ultra-sonication at 4° C. for 10 min. […]
The enzyme activity of CPC acylase mutant to CPC was measured according to the method described by Park et al. with minor modifications as follows (Park, et al., Kor. J. Appl. Microbiol. Biotechnol. 23: 559-564, 1995). […] After the reaction, the absorbance of reaction mixture was measured at 415 nm and quantified by comparing with a calibration curve of standard material. […] Meanwhile, the specific activity of CPC acylase mutant for CPC was determined by measuring the amount of protein remaining in the enzyme solution according to the method described by Bradford (Bradford, M., Anal. Biochem. 72: 248-254, 1976) and representing it as an active unit corresponding to 1 mg of protein. The reactivity of CPC acylase mutant to CPC was determined by the following steps of adding the same amount of protein to a reaction mixture, performing an enzyme reaction for a fixed time, measuring the amount of 7-ACA produced in the reaction mixture, and representing it as a relative value. […]

The nature of series [3]: Productivity of CPC acylase mutant, pET29 plasmids in E. coli BL21(DE3) with lactose. Particulars: pET29-S12, E. coli BL21(DE3), 2% lactose, 25° C., 72 hr. Here is the method: Each of pET29-TnS5αβ and pET29-S12 plasmids was transformed into E. coli BL21(DE3) by electrophoration to prepare the recombinant E. coli containing pET29-TnS5αβ and pET29-S12 plasmid, respectively, and the productivity of sixfold CPC acylase mutant in each recombinant E. coli was measured The TnS5αβ and S12 CPC acylase mutant gene in these recombinant plasmids was transcribed by the action of T7 promoter which is under the control of LacI operator existed on pET29-a(+) vector.
The recombinant E. coli containing pET-TnS5αβ plasmid was inoculated in […] of a LB broth containing 20 μg/ml of kanamycin and cultivated at 30° C., 200 rpm for 16 hr with vigorous shaking. […] The activity of sixfold CPC acylase mutant to CPC was measured using said crude enzyme solution according to the same method as described in Example <1-1-2>.
Further, the productivity of CPC acylase by S12 mutant enzyme in the E. coli BL21(DE3) transformant containing pET29-S12 recombinant plasmid was measured according to the same method as described above except that […] of a LB broth containing 20 μg/ml of kanamycin and 2% lactose was employed for a main cultivation and the E. coli transformant was cultured at 25° C., 200 rpm for 72 hr with vigorous shaking. […]

Residue numbers refer to the chain shown, from its start.

B1: Wild-type: Pseudomonas sp. SE83 derived wild-type CPC acylase (AcyII), α-subunit SEQ ID NO: 4 and β-subunit SEQ ID NO: 5, from pBCPC (protein)
alpha: TMAAKTDREALQAALPPLSGSLSIPGLSAPVRVQRDGWGIPHIKASGEADAYRALGFVHAQDRLFQMELTRRKALGRAAEWLGAEAAEADILVRRLGMEKVCRRDFEALGAEAKDMLRAYVAGVNAFLASGAPLPIEYGLLGAEPEPWEPWHSIAVMRRLGLLMGSVWFKLWRMLALPVVGAANALKLRYDDGGQDLLCIPPGVEAERLEADLAALRPAVDALLKAMGG
beta: SNNWAVAPGRTATGRPILAGDPHRVFEIPGMYAQHHLACDRFDMIGLTVPGVPGFPHFAHNGKVAYCVTHAFMDIHDLYLEQFAEDGRTARFGNEFEPVAWRRDRIAVRGGADREFDIVETRHGPVIAGDPLEGAALTLRSVQFAETDLSFDCLTRMPGASTVAQLYDATRGWGLIDHNLVAGDVAGSIGHLVRARVPSRPRENGWLPVPGWSGEHEWRGWIPHEAMPRVIDPPGGLIVTANNRVVADDHPDYLCTDCHPPYRAERIMERLVASPAFAVDDAAAIHADTLSPHVGLLRARLEALGIQGSLPAEELRQTLIAWDGRMDAGSQAASAYNAFRRALTRLVTARSGLEQAIAHPFAAVPPGVSPQGQVWWAVPTLLRNDDAGMLKGWSWDEALSEALSVATQNLTGRGWGEEHRPRFTHPLSAQFPAWAALLNPVSRPIGGDGDTVLANGLVPSAGPEATYGALSRYVFDVGNWDNSRWVVFHGASGHPASPHYADQNAPWSDCAMVPMLYSWDRIAAEAVTSQELVPA
modifications: Pseudomonas sp. SE83
Consider B1, for which, in series [1], the “acylase activity to CPC as compared with GL-7-ACA” value is “about 5%”. The “The productivity of CPC acylase (unit/l)” value in series [2] is recorded as “about 97 unit/l”; in series [2] (listed as pBCPC (wild-type)), 97 unit/l.

B2: S12: sixfold CPC acylase mutant, α-subunit SEQ ID NO: 7 and β-subunit SEQ ID NO: 8 (protein)
alpha: B1 alpha with V121A, G139S
beta: B1 beta with F58N, I75T, I176V, S471C
modifications: alpha-subunit of mutatnt CPC acylase S12 protein; beta-subunit of mutatnt CPC acylase S12 protein
For the molecule B2, the “productivity of CPC acylase mutant” value in series [3] is recorded as 1,207 unit/l. Besides, the “The productivity of CPC acylase (unit/l)” value in series [2] came to 712 unit/l.
